Experimental findings from PMC4070910, “Cathepsin S Signals via PAR2 and Generates a Novel Tethered Ligand Receptor Agonist” (PLoS ONE, 2014) are described below.

For test [1], the system named is HeLa cells transfected with salmon sperm DNA. As to the kind of experiment: Fura-2 calcium imaging in HeLa cells transfected with salmon sperm DNA (control). The format is cell-based. The conditions noted are these: HeLa cells transfected with salmon sperm DNA alone. How it is done:
(§1) Human PAR2 cDNA was cloned as an Xho I-Hind III fragment (1206 bp) into pcDNA3.1(−). 10 µg of DNA were diluted into 0.5 ml of DMEM and mixed with 0.5 ml of DMEM containing 10 µl of Lipofectamine 2000 transfection reagent and incubated at room temperature for 20 minutes. HeLa cells were grown to confluence, trypsinized and 1×10^6 cells were pelleted in a 15 ml tube by centrifugation at 1000 rpm for 5 minutes. The DMEM-Lipofectamine 2000-DNA mixture (1 ml) was added to the cell pellet, resuspended gently and incubated at room temperature for 20 minutes. Four ml of complete DMEM with 10% FBS were added to the tube, mixed by inverting the tube several times, plated into a 96-well glass bottom plate at 20,000 cells/well, and placed in a 37°C CO2 incubator. HeLa cells transfected with vector alone or salmon sperm DNA (shown in the figures) were plated as a control. The medium was aspirated two days after transfection. Fura-2 was used as a ratiometric calcium-sensitive indicator as follows. […]
(§2) Imaging was performed using a Zeiss Axiovert 200 M microscope platform equipped with a flipping filter wheel for ratiometric imaging. […] The software later analyzed all images taken during each excitation period. Typically, ratiometric changes were measured in 10–20 cells in each image. An average of the fluorescence of the cells in each image was calculated and plotted against time in seconds.

The test system of a further test is cathepsin S. As to the kind of experiment: Cathepsin S digestion of the human PAR2 N-terminal peptide (LC/MS/MS). The test is classed as biochemical. Conditions: cathepsin S 1 µM, pH 7.0, 37°C, 20 minutes; MS/MS sequencing. How it is done: Recombinant human cathepsin S was produced as follows. The human cathepsin S proprotein coding region was isolated by PCR using the forward and reverse primers […] CCTG and […] and a template of plasmid DNA containing the entire coding sequence of human cathepsin S. The PCR product was cut with Nco I and Xho I, and cloned into the pTYB4 expression vector from New England Biolabs for expression in E.coli. Cells were grown in LB medium induced with 0.3 mM IPTG, harvested by centrifugation, resuspended in lysis buffer A (0.5 M NaCl, 0.05 M Tris, 5 mM EDTA, pH 8.0) and lysed in a French press. The lysate was centrifuged and the protein was found predominantly in inclusion bodies which were dissolved in buffer B (10 mM DTT and 8 M urea), and refolded in the presence of buffer B containing 0.7 M L-arginine, 0.01 M glutathione, 0.001 M glutathione disulfide, and 0.005 M EDTA as described. […] The specific activity of cathepsin S was assayed using Z-VVR-AMC in fluorimetric and Z-FR-pNA in colorimetric assays[22] and determined to be 10,000 mU/mg protein.
A peptide comprising the N-terminus of PAR2, […], was dissolved in 50 mM Tris, pH 7.0, 0.1 M NaCl, 0.1 mM EDTA, and 0.01% Tween-20 to a concentration of 100 mM. […] The reaction samples were analyzed by the Harvard Microchemistry & Proteomics Analysis Facility (Cambridge, MA). […]

Test [2] deals with NHEKs which endogenously express PAR2. As to the kind of experiment: Calcium imaging in normal human epidermal keratinocytes (NHEKs). The format is cell-based.
Excerpt: HeLa cells were obtained from the ATCC and maintained in DMEM supplemented with fetal bovine serum (Fisher Biochemicals), L-glutamine, penicillin and streptomycin. Normal human epidermal keratinocytes (NHEKs) were harvested from neonatal foreskin and maintained in Keratinocyte Serum-Free media supplemented with epidermal growth factor, bovine pituitary extract, L-glutamine, penicillin and streptomycin. All reagents were obtained from Invitrogen unless otherwise noted.
as §1, with “follows. 100 µl of complete DMEM containing 2 µM of Fura-2 were added to each well and left at room temperature in the dark for 1 hr.” for “follows.”
as §2

“Also recorded” adds a separate entry of the source.

B1: cathepsin S: Recombinant human cathepsin S, cysteine protease, expressed in E.coli, refolded and activated (protein, UniProt P25774 115-331, looked up)
Cathepsin S: LPDSVDWREKGCVTEVKYQGSCGACWAFSAVGALEAQLKLKTGKLVSLSAQNLVDCSTEKYGNKGCNGGFMTTAFQYIIDNKGIDSDASYPYKAMDQKCQYDSKYRAATCSKYTELPYGREDVLKEAVANKGPVSVGVDARHPSFFLYRSGVYYEPSCTQNVNHGVLVVGYGDLNGKEYWLVKNSWGHNFGEEGYIRMARNKGNHCGIASFPSYPEI
On to B1, for which the “calcium response in cells without PAR2 (in words)” value in test [1] is “Neither cathepsin S nor any of the peptides induced calcium responses”. The “cleavage points (in words)” value in the test on cathepsin S was “resulted in several cleavage points; also recorded: most frequent after glycine followed by leucine”. Further, in test [2] (KVDGTS 100 µM, cathepsin S 2 µM), the “calcium response in NHEKs (in words)” value is “activated NHEKs”. The “calcium response to the substance as second agent after KVDGTS (in words)” value in test [2] (NHEKs, KVDGTS 100 µM then cathepsin S 2 µM, second agent at 300 s) was “attenuated”. Further, the “effect as first agent on calcium response to second agent (in words)” value in test [2] (NHEKs, KVDGTS 100 µM, cathepsin S 2 µM, second agent at 300 s) is “abolishes the response to the subsequent addtion of KVDGTS”.
